Here are results for 109 sequences from the supplement of paper PMC9942255.

The series concerns Bacillus subtilis DB104 (SP-AmyQ fusion secretion). Kind of series: AmyQ secretion efficiency, weighted average sort bin (1 = best secretion, 10 = worst) (bin number (weighted average, 1-10)); higher = lower secretion efficiency. An outline of the steps:
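Occupied alginate beads were sorted by large-particle flow cytometry into 10 equally populated bins according to green/red fluorescence ratio. Each bead (~65 nL) held fluorescein-starch and about 0.3 cells of a B. subtilis DB104 library expressing mature AmyQ fused to designed signal peptides from the amyE locus, and beads were grown about 13 h at room temperature and stained with nile red before sorting. Bin amplicons were Illumina-sequenced, and the secretion score is the read-frequency-weighted average bin number, normalised to beads per bin, excluding low-abundance sequences.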

Regarding MKVLLSALLLLLFAFEPSASPKKL, the AmyQ secretion efficiency came out at 2.66.

In the case of MRKKRVITCVMAASLTLGSLLTAVTASAKED, the AmyQ secretion efficiency turned out to be 3.16.

In turn, MKMKSGMEQAVSVLLLLSRLPVQASFTSE returned an AmyQ secretion efficiency of 7.78.

In turn, MRGKSAVLLSLIMLIAGFLIHFSFQM gave an AmyQ secretion efficiency of 6.42.

In the case of MKVPKTMLLSTAAGLLLSLTATSFSAHYV, the AmyQ secretion efficiency is 6.3.

Sequence MRFTKTRGQRQVLGLAAVFPLTAQAEKA registered an AmyQ secretion efficiency of 7.51.

In turn, MLKRTSFVSSLFISSAVLLSILLPSGQIHAQSA displayed an AmyQ secretion efficiency of 2.68.

The sequence MRFTKVVGFLSVLGLAAVFPLTAQARKR yielded an AmyQ secretion efficiency of 7.26.

On to MKRKIVRMTLPLLIVCLAFSSFSASARAASE, for which the AmyQ secretion efficiency is 2.21.

Turning to MKLAKRVSALTPSTTLAIVIFAKAKEL, the AmyQ secretion efficiency came to 8.15.

Sequence MLKRTSFVSSLFISSAVLLSILKKKGQAHAQSA registered an AmyQ secretion efficiency of 7.

Sequence MKKVLMAFIICLSLILSVLAAPPSGAKGESV displayed an AmyQ secretion efficiency of 2.46.

For the sequence MKKSGSCQKTLAVILSGVALTQLS, the AmyQ secretion efficiency is 4.76.

As to MRSYIKVLTMCFLGLILFVPTGLADNS, the AmyQ secretion efficiency was 1.86.

The sequence MKIVLLSALLLLLFAFEPSASGKKL had an AmyQ secretion efficiency of 4.93.

MFKKLLLATSALTFSLSLVLKLRGHAKAQEV showed an AmyQ secretion efficiency of 6.07.

Sequence MKKRKRRVVLVLSIAGIGGFSVHAASS came in with an AmyQ secretion efficiency of 7.17.

MKNMSCKLVVSVTLFFSFLTIGPLAHYQNS displayed an AmyQ secretion efficiency of 6.66.

In the case of MMKKGLLAGALTATVLFGTCAVDVPGIISPKTAEAASR, the AmyQ secretion efficiency is 2.71.

In turn, MRSYIKVLTMCFLGLILFVPTALAARK registered an AmyQ secretion efficiency of 5.25.

MNLRKILLSSALSLGMLVSAAPVLNTSS: the AmyQ secretion efficiency stood at 5.87.

As to MKLKSKLLLSCLALSTVFVATTIANCPTH, the AmyQ secretion efficiency stood at 7.55.

Take MKKSQYFIVFICFFVLFSVHPIAAAAASS: the AmyQ secretion efficiency amounted to 2.35.

The sequence MKKLLSTAAGLLLSLTATSVSAHYV returned an AmyQ secretion efficiency of 4.36.

In turn, MKKKQVLALTAAAGLGLTALHSAPAAKAAPL had an AmyQ secretion efficiency of 2.4.

MLKRTSFVSSQGQGSRTLLSILLPSGQAHAQSA displayed an AmyQ secretion efficiency of 7.6.

In the case of MKVPKTMLLSTAAGLLLSLTATSWSAHYV, the AmyQ secretion efficiency was 6.27.

Sequence MKLKKRVSMFLVALTMCGGLFVFAAKAVKT showed an AmyQ secretion efficiency of 5.56.

Consider MGLGKKLSVAVAASFMSLSISLPGVQARKR, for which the AmyQ secretion efficiency came out at 6.96.

Consider MKRRKVLTGSVLSLGLLVSASPAFATSP, for which the AmyQ secretion efficiency was determined as 2.61.

Regarding MMLMMSVSMFLVALTMCGGLFVTPAKAVKT, the AmyQ secretion efficiency turned out to be 4.77.

Consider MSVCQKSIVRFLVSLIIGTFVISVPFMANAQSD, for which the AmyQ secretion efficiency was 1.68.

Take MKKCLLFLTTIALILSLSTTAFAKNT: the AmyQ secretion efficiency was determined as 1.16.

Consider MKWMCSICCAAVLLAGIAIAQAEAV, for which the AmyQ secretion efficiency was determined as 6.86.

With MKKLLAAGIIGLLTVTLVFLVVLLSIASPSFAAEK, the AmyQ secretion efficiency is 2.43.

As to MKKWIYVVLVLSIAGIGGFSVHYASS, the AmyQ secretion efficiency amounted to 8.11.

MKVLLSALLLLLFAFEPSASGAKR displayed an AmyQ secretion efficiency of 4.45.

MPYLKRVLLLLVTGLFMSLFAVTATASLQTG gave an AmyQ secretion efficiency of 1.81.

With MPYLKRVLLLLVTGLFMSLFAVTATPSAQTG, the AmyQ secretion efficiency turned out to be 4.75.

The sequence MKRLFMKASLVLFAVVFVFAVKGAPAKGETH came in with an AmyQ secretion efficiency of 2.19.

MTKKAWFLPLVCVLLISGWLAPAASCSAQTT: the AmyQ secretion efficiency was found to be 3.03.

MKRITINIKRRKRRAAVISLTGTAEAAEK returned an AmyQ secretion efficiency of 7.96.

For MKRRRRPMRLALGAALTIAPLSFASAEEN, the AmyQ secretion efficiency came to 5.86.

The sequence MKKTIMSFVAVAALSTTAFGAHFSAKEI showed an AmyQ secretion efficiency of 4.73.

In turn, MPYLKRVLLLLVTGLFMSLFEEEATASAQTG yielded an AmyQ secretion efficiency of 1.12.

Turning to MMRIRIPMTLALGAALTIAPLSFASAEEN, the AmyQ secretion efficiency was determined as 2.92.

In the case of MTTKFKKKRRFLLCFMPAAKIEHTQASLL, the AmyQ secretion efficiency came to 7.76.

The sequence MKKKQRAGLTASAIVGTTLVVTPAEAATI came in with an AmyQ secretion efficiency of 6.45.

With MKKKKAAAVLLSLGLVFGFSYGAGHVAEAKTK, the AmyQ secretion efficiency amounted to 1.65.

For MKKRLIAPMLLSAASLAFFAMSGSAQYAAY, the AmyQ secretion efficiency came to 6.56.

Take MNKLKRLSMLTVMIASVFIFSSHILAAQY: the AmyQ secretion efficiency was found to be 3.91.

Sequence MKKKKRKFVLIVCIIFTSALFPTFSSVTAAQG registered an AmyQ secretion efficiency of 1.03.

MKKKIVAGLAVSAVVGAEAKTI gave an AmyQ secretion efficiency of 8.76.

As to MMQIMIFLTSFMLLAMTGQTALAKDV, the AmyQ secretion efficiency came out at 4.32.

In the case of MRKKRVITCVMAASLTLGSLLPAGYATAATP, the AmyQ secretion efficiency is 2.04.

MKKKQVMLALTAAAGLGLTALHSAPAAKAAPD had an AmyQ secretion efficiency of 2.15.

Regarding MFKFKKNFLVGLSAALMSIKQFSATASAAST, the AmyQ secretion efficiency amounted to 5.73.

Sequence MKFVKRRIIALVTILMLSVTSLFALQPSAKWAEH yielded an AmyQ secretion efficiency of 5.19.

Consider MAIIIAIIAAVIVIAALITFNVMNASPG, for which the AmyQ secretion efficiency was 6.23.

The sequence MRSYIKTFNVLTMCFLGLILFVPTALADNS yielded an AmyQ secretion efficiency of 2.59.

In the case of MNLRKILLSSALSLGMLVSAAPVLATSE, the AmyQ secretion efficiency was 1.92.

MKRSIFITCLLITLLTMGGMIASPASAAGT showed an AmyQ secretion efficiency of 2.08.

Consider MKKTIMSFKRKKALSTTAFGAHASAKEI, for which the AmyQ secretion efficiency was 7.79.

In turn, MLTKRLLTIYIMLLGLIAWFPGASQAEEK gave an AmyQ secretion efficiency of 4.32.

As to MKNMSCKLVVSVTLFFSFLTIGPLAHVQNS, the AmyQ secretion efficiency came out at 4.29.

In turn, MKKKQVMLALTAAAGLGLTALHSAPAPKAAPL returned an AmyQ secretion efficiency of 6.78.

MKRLLVSLRVWMVFLMNWVTPDRKTQAAAVY displayed an AmyQ secretion efficiency of 6.81.

MRFTKVVGFLSVLGLAAKKRKRRAQAEKA: the AmyQ secretion efficiency was 7.6.

MKKSQYFIVFICFFVLFSVHPIAAAEADS displayed an AmyQ secretion efficiency of 3.09.

For MKKAAAVLLSLGLVFGFSYGAGHVAECKTK, the AmyQ secretion efficiency turned out to be 4.74.

In the case of MAIIIAIIAAVIVIAALITFAVRNASPG, the AmyQ secretion efficiency came to 6.55.

Consider MKRMIVRMTLMMTLPLLIVCLAFSSFSASARAASE, for which the AmyQ secretion efficiency was 2.08.

The sequence MKKAAAVLLSLGLVFDESYGAGHVAEAKTK registered an AmyQ secretion efficiency of 2.18.

As for MKKKQVMLALTAAAGLGLTALHSAPAEKAAPL, the AmyQ secretion efficiency amounted to 6.32.

In turn, MNFKKTITTSSSVVSALSISALALSVSGVASAHEI registered an AmyQ secretion efficiency of 4.04.

MKKLKRKKVILGALGTSYISADSS came in with an AmyQ secretion efficiency of 7.53.

Sequence MKSKGSIMACLILFSFTITTFINTETISPFSN had an AmyQ secretion efficiency of 7.51.

MKLWMRKTLVVLFTIVTFGLVSPPAAHMADKP: the AmyQ secretion efficiency stood at 2.08.

The sequence MLKRTSFVSLFISSAVLLSILLPSGQAHAQSA returned an AmyQ secretion efficiency of 1.67.

For MTKLKMLSMLTVMIASLFIFSSQALSVQY, the AmyQ secretion efficiency was 2.56.

Sequence MKKLILAFILSAAAAVGLFTFGGVQQASAKEL registered an AmyQ secretion efficiency of 4.

In turn, MKKSKQSGRLFLGLTPAGANAADL yielded an AmyQ secretion efficiency of 6.97.

With MKKRLIAPMLLSAASLAFFAMSGSSVTAGAQAAAY, the AmyQ secretion efficiency was found to be 6.18.

Regarding MKIRKILLSSALSFGMLRKRVPALAAGT, the AmyQ secretion efficiency came to 6.53.

For the sequence MAIIIAIIAAVIVIAALITFNVGTPRNASPG, the AmyQ secretion efficiency turned out to be 8.5.

For the sequence MKKAFILSAAAAVGLFTFGGVQQASEKEL, the AmyQ secretion efficiency worked out at 6.66.

The sequence MKKKQVMLALTAAAGLGLTALHSAPAAKHAPL yielded an AmyQ secretion efficiency of 4.9.

In turn, MKKWLIIAVSLAIAIVLFMYTKGEAKVAGM gave an AmyQ secretion efficiency of 5.3.

MRKKRVITCVMAASLTLGSLLPAGYVSAKED returned an AmyQ secretion efficiency of 3.76.

In the case of MKKAAAVLLSLGLVFGFSYGAGHVNEAKTK, the AmyQ secretion efficiency amounted to 5.96.

For MPYLKRVRRRRVTGLFMSLFAVTATASAQTG, the AmyQ secretion efficiency was 2.37.

In turn, MKKRLIAPMLLSAASLAFFAMSGSAQARKK gave an AmyQ secretion efficiency of 5.79.

As for MKRSISIFITCLLITLLKRKGMIASPASAAGT, the AmyQ secretion efficiency came to 5.06.

As to MIKRFSLIMMTGLLFGLTSPAFAAEK, the AmyQ secretion efficiency worked out at 4.15.

In turn, MKRFILVLSFLSIIVAYPIQSNASPM had an AmyQ secretion efficiency of 5.96.

MKVLLSALLLLLFAFEPSLSGKKL gave an AmyQ secretion efficiency of 6.45.

MKRSISIFITCLLITLLTMGGMIASPASAEDE returned an AmyQ secretion efficiency of 2.08.

MKRIRIPMTLALGAALTIAPLSFASSEEN yielded an AmyQ secretion efficiency of 4.71.

In turn, MKRFSTAYLLLGILCSAAVFLIGAPSRALGADD came in with an AmyQ secretion efficiency of 3.2.

On to MKKRFFGPIILAFILFAGLIAIPS, for which the AmyQ secretion efficiency was found to be 5.16.

MLKKKWMVGLLAGCLAAGGFSYNAFYTEN showed an AmyQ secretion efficiency of 6.38.

Consider MKTLRTLCVLMILSGVIFFGLKCDAKDI, for which the AmyQ secretion efficiency turned out to be 4.31.

In turn, MKLAKRVSALTPSTTLAITAKTKEL returned an AmyQ secretion efficiency of 7.68.

Sequence “MKKKQVMLALTAAAGLGLTALHSAPASVVAVAASAKAAPL” came in with an AmyQ secretion efficiency of 1.02.

For the sequence MFMLFMNASLVLFAVVFVFAVKGAPAKAETH, the AmyQ secretion efficiency was 5.11.

For the sequence MKKRLIAPMLLSAASLAFFAMSGSSGAAGPSPAAQAAAY, the AmyQ secretion efficiency turned out to be 4.83.

Turning to MGLGKKLSVAVAASFMSLSISLPGWQAAEG, the AmyQ secretion efficiency worked out at 5.06.

As to MNITIMSFVAVAALSTTAFGAHASAKEI, the AmyQ secretion efficiency stood at 3.64.

Turning to MKKKLAAGLTASAIVGTTLVVTPAELATI, the AmyQ secretion efficiency was determined as 5.54.
